T1: PFPQPQLPY peptide
T1 chain: PFPQPQLPY

T2: PFPQPQQPF peptide
T2 chain: PFPQPQQPF


How the values were obtained:
[1] = target: T1, PFPQPQLPY peptide
[2] = target: T2, PFPQPQQPF peptide
[3] = target: peptides containing PQL
[4] = target: DQ2.5-glia-ω1
[5] = target: DQ2.5-glia-α1a

Protein	% Improvement on PFPQPQLPY (SEQ ID NO: 67) [1] [%]	% Improvement on PFPQPQQPF (SEQ ID NO: 68) [2] [%]	further results
Kuma011-D402Q (protein) AAPTAYTPLDVAQAYQFPEGLDGQGQCIAIIELGGGYDEASLAQYFASLGVPAPQVVSVSVDGASNQPTGDPKGPDGEVELDIEVAGALAPGAKFAVYFAPDTTAGFLDAITTAIHDPTLKPSVVSISWSGPEDSWTSAAIAAMNRAFLDAAALGVTVLAAAGDSGSTGGEQDGLYHVHFPAASPYVLACGGTRLVASGGRIAQETVWNDGPQGGATGGGVSRIFPLPAWQEHANVPPSANPGASSGRGVPDLAGNADPATGYEVVIDGEATVIGGTSAVAPLFAALVARINQKLGKAVGYLNPTLYQLPADVFHDITEGNNDIANRAQIYQAGPGWDPCTGLGSPIGVRLLQALLPSASQPQ	164	111	
Kuma010/011 A449N (protein) AAPTAYTPLDVAQAYQFPEGLDGQGQCIAIIELGGGYDEASLAQYFASLGVPAPQVVSVSVDGASNQPTGDPKGPDGEVELDIEVAGALAPGAKFAVYFAPDTTAGFLDAITTAIHDPTLKPSVVSISWSGPEDSWTSAAIAAMNRAFLDAAALGVTVLAAAGDSGSTGGEQDGLYHVHFPAASPYVLACGGTRLVASGGRIAQETVWNDGPDGGATGGGVSRIFPLPAWQEHANVPPSANPGASSGRGVPDLAGNADPNTGYEVVIDGEATVIGGTSAVAPLFAALVARINQKLGKAVGYLNPTLYQLPADVFHDITEGNNDIANRAQIYQAGPGWDPCTGLGSPIGVRLLQALLPSASQPQ	119	118	
Kuma011-T406S (protein) AAPTAYTPLDVAQAYQFPEGLDGQGQCIAIIELGGGYDEASLAQYFASLGVPAPQVVSVSVDGASNQPTGDPKGPDGEVELDIEVAGALAPGAKFAVYFAPDTTAGFLDAITTAIHDPTLKPSVVSISWSGPEDSWTSAAIAAMNRAFLDAAALGVTVLAAAGDSGSTGGEQDGLYHVHFPAASPYVLACGGTRLVASGGRIAQETVWNDGPDGGASGGGVSRIFPLPAWQEHANVPPSANPGASSGRGVPDLAGNADPATGYEVVIDGEATVIGGTSAVAPLFAALVARINQKLGKAVGYLNPTLYQLPADVFHDITEGNNDIANRAQIYQAGPGWDPCTGLGSPIGVRLLQALLPSASQPQ	84	101	
Kuma011-I463L (protein) AAPTAYTPLDVAQAYQFPEGLDGQGQCIAIIELGGGYDEASLAQYFASLGVPAPQVVSVSVDGASNQPTGDPKGPDGEVELDIEVAGALAPGAKFAVYFAPDTTAGFLDAITTAIHDPTLKPSVVSISWSGPEDSWTSAAIAAMNRAFLDAAALGVTVLAAAGDSGSTGGEQDGLYHVHFPAASPYVLACGGTRLVASGGRIAQETVWNDGPDGGATGGGVSRIFPLPAWQEHANVPPSANPGASSGRGVPDLAGNADPATGYEVVIDGEATVLGGTSAVAPLFAALVARINQKLGKAVGYLNPTLYQLPADVFHDITEGNNDIANRAQIYQAGPGWDPCTGLGSPIGVRLLQALLPSASQPQ	124	22	
Kuma011-I463M (protein) AAPTAYTPLDVAQAYQFPEGLDGQGQCIAIIELGGGYDEASLAQYFASLGVPAPQVVSVSVDGASNQPTGDPKGPDGEVELDIEVAGALAPGAKFAVYFAPDTTAGFLDAITTAIHDPTLKPSVVSISWSGPEDSWTSAAIAAMNRAFLDAAALGVTVLAAAGDSGSTGGEQDGLYHVHFPAASPYVLACGGTRLVASGGRIAQETVWNDGPDGGATGGGVSRIFPLPAWQEHANVPPSANPGASSGRGVPDLAGNADPATGYEVVIDGEATVMGGTSAVAPLFAALVARINQKLGKAVGYLNPTLYQLPADVFHDITEGNNDIANRAQIYQAGPGWDPCTGLGSPIGVRLLQALLPSASQPQ	123	53	
Kuma011-I463A (protein) AAPTAYTPLDVAQAYQFPEGLDGQGQCIAIIELGGGYDEASLAQYFASLGVPAPQVVSVSVDGASNQPTGDPKGPDGEVELDIEVAGALAPGAKFAVYFAPDTTAGFLDAITTAIHDPTLKPSVVSISWSGPEDSWTSAAIAAMNRAFLDAAALGVTVLAAAGDSGSTGGEQDGLYHVHFPAASPYVLACGGTRLVASGGRIAQETVWNDGPDGGATGGGVSRIFPLPAWQEHANVPPSANPGASSGRGVPDLAGNADPATGYEVVIDGEATVAGGTSAVAPLFAALVARINQKLGKAVGYLNPTLYQLPADVFHDITEGNNDIANRAQIYQAGPGWDPCTGLGSPIGVRLLQALLPSASQPQ	51	234	
Kuma011-A449E (protein) AAPTAYTPLDVAQAYQFPEGLDGQGQCIAIIELGGGYDEASLAQYFASLGVPAPQVVSVSVDGASNQPTGDPKGPDGEVELDIEVAGALAPGAKFAVYFAPDTTAGFLDAITTAIHDPTLKPSVVSISWSGPEDSWTSAAIAAMNRAFLDAAALGVTVLAAAGDSGSTGGEQDGLYHVHFPAASPYVLACGGTRLVASGGRIAQETVWNDGPDGGATGGGVSRIFPLPAWQEHANVPPSANPGASSGRGVPDLAGNADPETGYEVVIDGEATVIGGTSAVAPLFAALVARINQKLGKAVGYLNPTLYQLPADVFHDITEGNNDIANRAQIYQAGPGWDPCTGLGSPIGVRLLQALLPSASQPQ	149	208	
Kuma011-T461R (protein) AAPTAYTPLDVAQAYQFPEGLDGQGQCIAIIELGGGYDEASLAQYFASLGVPAPQVVSVSVDGASNQPTGDPKGPDGEVELDIEVAGALAPGAKFAVYFAPDTTAGFLDAITTAIHDPTLKPSVVSISWSGPEDSWTSAAIAAMNRAFLDAAALGVTVLAAAGDSGSTGGEQDGLYHVHFPAASPYVLACGGTRLVASGGRIAQETVWNDGPDGGATGGGVSRIFPLPAWQEHANVPPSANPGASSGRGVPDLAGNADPATGYEVVIDGEARVIGGTSAVAPLFAALVARINQKLGKAVGYLNPTLYQLPADVFHDITEGNNDIANRAQIYQAGPGWDPCTGLGSPIGVRLLQALLPSASQPQ	120	86	
Kuma031 (protein) AAPTAYTPLDVAQAYQFPEGLDGQGQCIAIIELGGGYDEASLAQYFASLGVPAPQVVSVSVDGASNQPTGDPEGPDGEVTLDIEVAGALAPGAKFAVYFAPDTTAGFLDAITTAIHDPTLKPSVVSISWSGPEDSWTSAAIAAMNRAFLDAAALGVTVLAAAGDQGSTSGEQDGLYHVHFPAASPYVLACGGTRLVASGGRIAQETVWNQGPDGGATGGGVSRIFPLPAWQEHANVPPSANPGASSGRGVPDLAGNADPQTGYEVVIDGEATVTGGTSAVAPLFAALVARINQKLGKAVGYLNPTLYQLPADVFHDITEGNNDIANRAQIYQAGPGWDPCTGLGSPIGVRLLQALLPSASQPQP			Activity Improvement over Background (Kuma030) [3]: No change (PQL);
Kuma062 (protein) AAPTAYTPLDVAQAYQFPEGLDGQGQCIAIIELGGGYDEASLAQYFASLGVPAPQVVSVSVDGASNQPTGDPEGPDGEVTLDIEVAGALAPGAKFAVYFAPDTTAGFLDAITTAIHDPTLKPSVVSISWSMPEDSWTSAAIAAMNRAFLDAAALGVTVLAAAGDQGSTSGEQDGLYHVHFPAASPYVLACGGTRLVASGGRIAQETVWNQGPDGGATGGGVSRIFPLPAWQEHANVPPSANPGASSGRGVPDLAGNADPQTGYEVVIDGEATVTGGTSAVAPLFAALVARINQKLGKAVGYLNPTLYQLPADVFHDITEGNNDIANRAQIYQAGPGWDPCTGLGSPIGVRLLQALLPSASQPQP			detection of full-length peptide and of the PFPQPQ breakdown product over time [4]: Kuma062 demonstrates a higher level of enzymatic activity than Kuma030 or Kuma040
Kuma041 (protein) AAPTAYTPLDVAQAYQFPEGLDGQGQCIAIIELGGGYDEASLAQYFASLGVPAPQVVSVSVDGASNQPTGDPKGPDGEVTLDIEVAGALAPGAKFAVYFAPDTTAGFLDAITTAIHDPTLKPSVVSISWAGPEDSWTSAAIAAMNRAFLDAAALGVTVLAAAGDSGSTGGEQDGLYHVFFPAASPYVLACGGTRLVASGGRIAQETVWNQGPDGGATGGGVSRIFPLPAWQEHANVPPSANPGASSGRGVPDLAGNADPQTGYEVVIDGEATVTGGTSAVAPLFAALVARINQKLGKAVGYLNPTLYQLPADVFHDITEGNNDIANRAQIYQAGPGWDPCTGLGSPIGVRLLQALLPSASQPQP			Activity Improvement over Background (Kuma040) [3]: 1.0-1.2x (PQL)
Kuma070 (protein) AAPTAYTPLDVAQAYQFPEGLDGQGQCIAIIELGGGYDEASLAQYFASLGVPAPQVVSVSVDGASNQPTGDPKGPDGEVTLDIEVAGALAPGAKFAVYFAPDTTAGFLDAITTAIHDPTLKPSVVSISWAMPEDSWTSAAIAAMNRAFLDAAALGVTVLAAAGDSGSTGGEQDGLYHVFFPAASPYVLACGGTRLVASGGRIAQETVWNQGPDGGATGGGVSRIFPLPAWQEHANVPPSANPGASSGRGVPDLAGNADPQTGYEVVIDGEATVTGGTSAVAPLFAALVARINQKLGKAVGYLNPTLYQLPADVFHDITEGNNDIANRAQIYQAGPGWDPCTGLGSPIGVRLLQALLPSASQPQPGSTENLYFQSGALEHHHHHH			Activity Improvement over Background (Kuma040) [5]: 2-3x (PQL); Activity Improvement over Background (Kuma040) [4]: 2-4x (PQQ)
Kuma010 (protein) AAPTAYTPLDVAQAYQFPEGLDGQGQCIAIIELGGGYDEASLAQYFASLGVPAPQVVSVSVDGASNQPTGDPKGPDGEVELDIEVAGALAPGAKFAVYFAPDTTAGFLDAITTAIHDPTLKPSVVSISWSGPEDSWTSAAIAAMNRAFLDAAALGVTVLAAAGDSGSTGGEQDGLYHVHFPAASPYVLACGGTRLVASGGRIAQETVWNDGPDGGATGGGVSRIFPLPAWQEHANVPPSANPGASSGRGVPDLAGNADPATGYEVVIDGEATVIGGTSAVAPLFAALVARINQKLGKAVGYLNPTLYQLPADVFHDITEGNNDIANRAQIYQAGPGWDPCTGLGSPIGVRLLQALLPSASQPQGSTENLYFQSGALEHHHHHH			Kcat [5]: 3.7 s⁻¹; Km [5]: 4.6 mM; Vmax [5]: 3.7e-07 M/s; kcat/Km [5]: 819 M⁻¹ s⁻¹; Kcat [4]: 1.2 s⁻¹; Km [4]: 16.4 mM; Vmax [4]: 1.22e-07 M/s; kcat/Km [4]: 74 M⁻¹ s⁻¹

Source: US20180142226
